For one substance, binding signal results are on record in US20220290132.

The data set addresses SpCas9 nuclease (Streptococcus pyogenes) (UniProt Q99ZW2). Nature of the data set: EMSA. The following applies: 30 nM Cas9, 30 nM RNA, NEBuffer 3.1, 25 C then 37 C; negative control.
Chain of UniProt Q99ZW2 (Q99ZW2 whole entry): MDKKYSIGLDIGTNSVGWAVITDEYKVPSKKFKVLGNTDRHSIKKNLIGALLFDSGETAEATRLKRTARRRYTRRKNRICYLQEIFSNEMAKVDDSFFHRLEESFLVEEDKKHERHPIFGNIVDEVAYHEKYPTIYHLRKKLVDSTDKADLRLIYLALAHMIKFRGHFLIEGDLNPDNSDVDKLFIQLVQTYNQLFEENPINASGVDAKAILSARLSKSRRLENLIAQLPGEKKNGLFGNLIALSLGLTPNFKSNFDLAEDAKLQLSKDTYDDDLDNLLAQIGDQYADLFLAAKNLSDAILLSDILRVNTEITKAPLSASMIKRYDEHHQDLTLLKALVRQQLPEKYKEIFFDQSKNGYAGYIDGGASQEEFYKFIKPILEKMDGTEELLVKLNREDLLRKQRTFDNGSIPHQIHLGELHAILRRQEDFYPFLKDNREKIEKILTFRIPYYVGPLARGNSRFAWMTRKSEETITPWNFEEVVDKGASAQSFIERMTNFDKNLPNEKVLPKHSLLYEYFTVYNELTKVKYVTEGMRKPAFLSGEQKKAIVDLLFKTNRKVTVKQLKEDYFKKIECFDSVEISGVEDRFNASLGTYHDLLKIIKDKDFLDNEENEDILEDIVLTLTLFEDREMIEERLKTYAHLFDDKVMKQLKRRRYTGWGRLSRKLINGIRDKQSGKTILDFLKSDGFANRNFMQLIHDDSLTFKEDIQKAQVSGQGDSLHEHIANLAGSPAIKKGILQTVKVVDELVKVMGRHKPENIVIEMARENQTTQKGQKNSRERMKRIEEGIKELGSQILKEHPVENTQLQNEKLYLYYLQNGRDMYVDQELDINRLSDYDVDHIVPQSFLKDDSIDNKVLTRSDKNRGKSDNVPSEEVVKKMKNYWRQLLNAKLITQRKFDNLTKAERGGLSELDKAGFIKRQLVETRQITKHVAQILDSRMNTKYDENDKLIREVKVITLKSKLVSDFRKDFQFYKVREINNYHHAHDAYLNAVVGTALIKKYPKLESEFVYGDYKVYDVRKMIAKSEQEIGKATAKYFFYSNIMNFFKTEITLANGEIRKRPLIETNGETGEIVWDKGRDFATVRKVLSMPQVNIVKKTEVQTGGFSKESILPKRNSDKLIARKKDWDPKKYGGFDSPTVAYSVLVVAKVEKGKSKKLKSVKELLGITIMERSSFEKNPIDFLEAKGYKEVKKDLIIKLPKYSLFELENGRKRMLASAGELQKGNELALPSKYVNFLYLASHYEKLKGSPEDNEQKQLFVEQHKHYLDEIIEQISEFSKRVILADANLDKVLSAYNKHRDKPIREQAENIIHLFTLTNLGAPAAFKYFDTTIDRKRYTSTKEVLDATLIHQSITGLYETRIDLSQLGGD

Regarding “non-CRISPR structured RNA negative control”, the binding signal stood at 55 % bound.
